{"source": "patent US10994047B2", "about": "“Peptide dendrimers comprising fibrinogen-binding peptides” (HAEMOSTATIX LIMITED, priority 2014, dated 2021)", "key": {"[1]": {"biological_target": "T1, fibrinogen hole 'a' and hole 'b' (Homo sapiens, UniProt P02675+P02679)", "T1 sequence (P02679 27-433 limits assumed)": "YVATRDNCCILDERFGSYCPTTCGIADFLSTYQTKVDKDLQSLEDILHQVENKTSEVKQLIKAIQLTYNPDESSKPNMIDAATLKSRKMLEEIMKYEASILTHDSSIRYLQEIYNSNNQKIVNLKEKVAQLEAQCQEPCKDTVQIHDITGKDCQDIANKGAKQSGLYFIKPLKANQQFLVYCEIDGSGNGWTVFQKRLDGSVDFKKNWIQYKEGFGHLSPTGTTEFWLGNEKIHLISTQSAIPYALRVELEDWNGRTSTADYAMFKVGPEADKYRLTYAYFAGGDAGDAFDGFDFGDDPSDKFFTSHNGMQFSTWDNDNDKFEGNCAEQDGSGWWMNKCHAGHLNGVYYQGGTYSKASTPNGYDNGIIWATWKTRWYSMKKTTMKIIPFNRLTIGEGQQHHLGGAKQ", "T1 sequence (P02675 31-491)": "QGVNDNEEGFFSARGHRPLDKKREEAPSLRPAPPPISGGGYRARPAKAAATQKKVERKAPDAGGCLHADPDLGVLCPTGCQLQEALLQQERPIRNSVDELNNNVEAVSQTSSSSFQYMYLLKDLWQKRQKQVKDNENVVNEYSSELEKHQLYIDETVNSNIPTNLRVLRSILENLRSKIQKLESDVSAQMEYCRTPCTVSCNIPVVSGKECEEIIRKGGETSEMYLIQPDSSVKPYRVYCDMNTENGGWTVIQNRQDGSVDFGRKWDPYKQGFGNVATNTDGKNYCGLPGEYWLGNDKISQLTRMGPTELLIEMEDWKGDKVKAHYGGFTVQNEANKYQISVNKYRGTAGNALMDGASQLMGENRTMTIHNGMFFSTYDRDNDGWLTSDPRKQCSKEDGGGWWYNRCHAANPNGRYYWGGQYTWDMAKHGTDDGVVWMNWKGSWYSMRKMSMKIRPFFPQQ", "T1 sequence (P02671 20-629 partner limits assumed)": "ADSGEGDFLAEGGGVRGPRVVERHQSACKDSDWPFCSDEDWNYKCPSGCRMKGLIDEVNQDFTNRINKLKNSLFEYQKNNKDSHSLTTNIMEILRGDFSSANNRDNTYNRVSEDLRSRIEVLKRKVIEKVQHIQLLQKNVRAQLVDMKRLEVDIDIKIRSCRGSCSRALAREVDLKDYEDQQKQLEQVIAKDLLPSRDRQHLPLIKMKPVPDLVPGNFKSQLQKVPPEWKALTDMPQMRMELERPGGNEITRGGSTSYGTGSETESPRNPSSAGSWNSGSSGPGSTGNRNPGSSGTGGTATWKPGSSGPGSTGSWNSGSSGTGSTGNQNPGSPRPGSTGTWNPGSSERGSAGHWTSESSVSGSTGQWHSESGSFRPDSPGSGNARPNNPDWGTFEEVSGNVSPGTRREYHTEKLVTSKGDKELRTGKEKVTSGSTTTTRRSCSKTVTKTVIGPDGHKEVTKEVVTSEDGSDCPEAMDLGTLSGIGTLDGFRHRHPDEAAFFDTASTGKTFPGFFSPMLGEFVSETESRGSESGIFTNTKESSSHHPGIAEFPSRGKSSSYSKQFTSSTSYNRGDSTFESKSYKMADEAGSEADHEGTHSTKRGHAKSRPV", "details": "cited from earlier work"}, "[2]": {"biological_target": "T2, fibrinogen in human plasma (Homo sapiens, UniProt P02675+P02679)", "T2 construct": "from tissue; host or cells: human plasma", "T2 sequence (P02679 27-433 limits assumed)": "T1 sequence (P02679 27-433 limits assumed)", "T2 sequence (P02675 31-491)": "T1 sequence (P02675 31-491)", "T2 sequence (P02671 20-629 partner limits assumed)": "T1 sequence (P02671 20-629 partner limits assumed)", "assay": "Polymerisation of fibrinogen in human plasma, clotting time", "type": "biochemical", "details": "37° C.; for ability to polymerise fibrinogen in human plasma: 30 μL dendrimer 0.25 mg/ml added to 100 μL human plasma, FIG. 7", "protocol": "30 μL of each dendrimer (at a concentration of 0.25 mg/ml) was added to 100 μL human plasma at 37° C., and polymerisation of fibrinogen was determined using a Sigma Amelung KC4 Delta coagulation analyzer."}, "[3]": {"biological_target": "T3, purified human fibrinogen (Homo sapiens, UniProt P02675+P02679)", "T3 sequence (P02679 27-433 limits assumed)": "T1 sequence (P02679 27-433 limits assumed)", "T3 sequence (P02675 31-491)": "T1 sequence (P02675 31-491)", "T3 sequence (P02671 20-629 partner limits assumed)": "T1 sequence (P02671 20-629 partner limits assumed)", "assay": "Copolymerisation of peptide dendrimer with purified fibrinogen, clotting time on KC4 Delta coagulation analyser", "type": "biochemical", "protocol": "The ability of Peptide Dendrimer No. 12 to polymerise fibrinogen was assessed. 30 μl of dendrimer in solution, at concentration ranging from 0.005-2 mg/ml, was added to 100 μl purified human fibrinogen at 3 mg/ml (the level of fibrinogen found in the blood). Polymerisation of fibrinogen was analysed using a Sigma Amelung KC4 Delta coagulation analyser.\nThe ability of Peptide Dendrimer Nos. 4, 5, 10, 11, and 12 to copolymerise with fibrinogen was assessed using the same method described in Example 2. The concentration of each dendrimer was varied from 0.005-0.5 mg/ml.\nThe ability of the dendrimers to copolymerise with fibrinogen was assessed using the same method described in Example 2, for a concentration of each dendrimer ranging from 0.005-0.5 mg/ml."}, "[4]": {"biological_target": "T4, human fibrinogen (Homo sapiens, UniProt P02675+P02679)", "T4 sequence (P02679 27-433 limits assumed)": "T1 sequence (P02679 27-433 limits assumed)", "T4 sequence (P02675 31-491)": "T1 sequence (P02675 31-491)", "T4 sequence (P02671 20-629 partner limits assumed)": "T1 sequence (P02671 20-629 partner limits assumed)", "assay": "Clotting activity of dendrimers extracted from gamma-irradiated gelatin paste", "type": "biochemical", "details": "37° C.", "protocol": "2 ml of solution of Peptide Dendrimer No. 12 or 13 was mixed with SURGIFLO Haemostatic Matrix (a hydrated flowable gelatin matrix) to form a paste of each peptide. Each paste was sterilised by irradiation with ^60Co gamma rays at a dose of 30 kGy, and then stored at room temperature. Samples of the sterilised pastes were used for testing after storage for two and four weeks.\nAfter storage, peptide dendrimers were extracted from each paste using 10 mM HEPES buffer. 30 μL of each extract (with a peptide concentration of about 0.25 mg/ml) was added to 100 μL of human fibrinogen at 3 mg/ml, and the ability of each dendrimer to polymerise fibrinogen (the ‘clotting’ activity) at 37° C. was determined using a Sigma Amelung KC4 Delta coagulation analyser. The polymerisation activity of non-irradiated control samples was also determined."}, "[5]": {"details": "dendrimer 0.005-0.5 mg/ml, fibrinogen 3 mg/ml, FIG. 2 and 3"}}, "note": "Where no end group is shown, it is not given here.", "data": [{"substance": "GPRP- (SEQ ID NO: 1)", "values": [{"measurement": "binding preference for hole 'a' or hole 'b' of fibrinogen", "setting": "[1]", "result": "binds strongly and preferentially to the ‘a’ hole of fibrinogen"}]}, {"substance": "GPRPG (SEQ ID NO: 15) ((5)..(5) Carbox-terminal end may comprise an amide group; listed as Homo sapiens)", "values": [{"measurement": "binding preference for hole 'a' or hole 'b' of fibrinogen", "setting": "[1]", "result": "binds to hole ‘a’ and hole ‘b’ of fibrinogen, but with some preference for hole ‘a’"}]}, {"substance": "GHRPY- (SEQ ID NO: 11) (listed as Homo sapiens)", "values": [{"measurement": "binding preference for hole 'a' or hole 'b' of fibrinogen", "setting": "[1]", "result": "binds strongly and preferentially to the ‘b’ hole of fibrinogen"}]}, {"substance": "GPRPFPA (listed as Homo sapiens) [GPRPFPA (SEQ ID NO: 3)]", "values": [{"measurement": "binding preference for hole 'a' or hole 'b' of fibrinogen", "setting": "[1]", "result": "binds with high preference for hole ‘a’ in fibrinogen"}]}, {"substance": "Peptide Dendrimer No. 8: three-branch dendrimer: two peptides GPRPG, third APFPRPG attached by its amino-terminal end, carboxy-terminal amide (chain 2 APFPRPG-NH2; also: three-branch dendrimer core: two GPRPG, APFPRPG attached by its amino-terminal end; listed as Homo sapiens)", "values": [{"measurement": "ability to polymerise fibrinogen in human plasma", "setting": "[2]", "result": "not able to polymerise fibrinogen in human plasma"}, {"measurement": "ability to copolymerise with fibrinogen (clotting time)", "setting": "[3]; [5]", "result": "able to copolymerise with fibrinogen"}]}, {"substance": "Peptide Dendrimer No. 12: five-arm dendrimer, GPRPG- peptides; branched core with five consecutive lysine residues linked through side chains (chain KKKKK; also: five-arm dendrimer of GPRPG on core of five lysines linked through side chains, attachment places not given here)", "values": [{"measurement": "ability to polymerise fibrinogen in human plasma", "setting": "[2]", "result": "able to polymerise fibrinogen in human plasma"}, {"measurement": "clotting time in human plasma", "setting": "[2]; dendrimer 0.25 mg/ml, human plasma", "result": "less than one"}, {"measurement": "ability to copolymerise with fibrinogen (clotting time)", "setting": "[3]; dendrimer 0.005-2 mg/ml, 100 μl purified human fibrinogen 3 mg/ml, FIG. 1", "result": "able to copolymerise with fibrinogen almost instantaneously"}, {"measurement": "clotting", "setting": "[3]; dendrimer range ~0.02-0.5 mg/ml, FIG. 2", "result": "almost instantaneous clotting"}, {"measurement": "Clotting activity, Non-irradiated control", "setting": "[4]; extract from gelatin paste, about 0.25 mg/ml peptide, human fibrinogen 3 mg/ml, not irradiated", "result": 1, "unit": "s"}, {"measurement": "Clotting activity, Storage for 2 weeks post irradiation", "setting": "[4]; paste irradiated 30 kGy 60Co gamma, stored 2 weeks at room temperature, extract about 0.25 mg/ml, fibrinogen 3 mg/ml", "result": 1, "unit": "s"}, {"measurement": "Clotting activity, Storage for 4 weeks post irradiation", "setting": "[4]; paste irradiated 30 kGy 60Co gamma, stored 4 weeks at room temperature, extract about 0.25 mg/ml, fibrinogen 3 mg/ml", "result": 1, "unit": "s"}]}, {"substance": "Peptide Dendrimer No. 10: three-branch dendrimer, three GPRPG peptides each attached by carboxy-terminal end to the branched core (also: three copies of chain 1 attached by C-termini to a branched core; listed as Homo sapiens)", "values": [{"measurement": "ability to polymerise fibrinogen in human plasma", "setting": "[2]", "result": "able to polymerise fibrinogen in human plasma"}, {"measurement": "clotting times compared between dendrimers", "setting": "[3]; concentrations below ~0.125 mg/ml dendrimer, FIG. 2", "result": "faster clotting times than dendrimer no. 4"}]}, {"substance": "Peptide Dendrimer No. 9: three-branch dendrimer: two peptides GPRPFPA, third APFPRPG attached by its amino-terminal end, carboxy-terminal amide (chain 2 APFPRPG-NH2; also: three-branch dendrimer core: two GPRPFPA, APFPRPG attached by its amino-terminal end; listed as Homo sapiens)", "values": [{"measurement": "ability to polymerise fibrinogen in human plasma", "setting": "[2]", "result": "not able to polymerise fibrinogen in human plasma"}, {"measurement": "ability to copolymerise with fibrinogen (clotting time)", "setting": "[3]; [5]", "result": "very active in copolymerising with fibrinogen"}]}]}
